Experimental data reported in a protein production outcome set (Wang et al. 2014).

Experiment: label from the status in PepcDB records

Q: With “MTGFDADDAAALIQSYVDDHGLLSFLGVSVEDASDGEMRLRIPYHEKLTNHGPGEGDVHGGIAATLIDTAGGLAVRSALPKPVAANVATIDLNVSYLRPARGDLIADASVVRVGSTVGVAEISVVTPADTADAEPTEVAVGRGSFRVFRDDLEHHHHHH” as the sequence, how does the protein production read?
A: failed

Q: With “MTGHRPACPPIPADVYTRLERRIGRCHLNQRLGIEHDFEARIFGQGRTFFHIENWNRLHTLLRRLLKLSLLYRPGQRAARRIEIRRNEFTLPHLPEAFEGYTLLHISDLHLDMAGDLPDALIRAIGQAGHYDACVLTGDFRARTFGPYRGAIDGLAQVRTHIDKPVFAILGNHDTIRMTPEIEDLGIGVLLNEAREIRQDGASIFLAGVDDPHYYRADNIEKAADPIPQGAVSILLSHSPELYRHAAYADFDIMLCGHTHGGQICLPGGIALTLNARCPRAFGRGYWRYHRMQGYTSAGSGVSILDIRLNCPPEITLHRLSRHRLSKGGCECGGGKGLEHHHHHH” as the sequence, how does the protein production read?
A: not failed

Q: For “MTGKGQGGSWVPGVVSATDRGNFHASPTTATVLDIIGRILRAPLSATDTEIETALAQVADACSADVAQVCRAGTTGPLEPIHSWVRDGHIVLNIQDLCKFCPGSDQTGPVMLRDLKDLPEGPARDRLAGMELRSLVAVPMLRHGVLAGRVLLGWQTASSDLRPEDLAALQSLAEAMHAAAERRESERLTTEAAAALQEDRLLLESILRTSTSAILAFDADARIVFANDEAAALLGTDANRLPGCTLEGVGCRLLSREGEPLPPEALPVARAIAEGQTLRDLHHVLMAADGRQRILSINAAPVAAGAATAVRVVATIDDVTGQVSADSALRTALAEAHQLAFFDPLTGLYNRRGIVEVLRDCLQTCAREKAFLSLLYIDLDGMRQVNGTRGHWLGDRVLQALGARLDNLRQDGGDLGRISADEFVLTCGETHPDAAGAVAAAEAEAQRILESLREPFVVDGLTLEVTASIGLAAISAEDSVEGLLKGVDLAVMAAKAAGGDRACAYRADMEQDMVGRVALAQELREAIRRDEFRIYFEPMVSLGETGLEIVGQEALIRWEHPQRGLLAPIAFIPFAEETGFIRDIDRWVLRAAAQELARWAEDPARRHLGVSINISSAQFLSEEFGQMVREVLDETGVDPTRIELEVTEGTLLSNLGLARTTMMDLRSLGISIALDDFGTGFSSLSYLRDLPVDVLKIDRSFLGGLSDSKANRTILEGIIGLASGLGVALVAEGVETPAQFAWLRAKGCRTFQGYLFGRPVDEAQTQLAPEVSALGGHGGDRAVSGQIKG”, which protein production is on record?
A: failed

Q: With “MTGNSFHVSGYGPDKAGWTRLFARDSMARRLDWPILLAAVALSLMGSLLVYSATRNRTELNQGDQYYFLTRHLLNTGIGLALMVATVWLGHRALRTAVPLLYGFSVFLILLVLTPLGSTINGAHSWIKLPGGFSLQPSEFVKITIILGMAMLLAARVDAGDRPHPDHRTVLQALGLATVPMLIVMLMPDLGSVMVMVIIVLGILLASGASNRWIFGLLGAGTAGALAVWQLGILDDYQIARFAAFANPALDPAGVGYNTNQARIAIGSGGLTGSGLFEGSQTTGRFVPEQQTDFVFTVAGEELGFLGAGLIIALLGVVLWRGCRIARSTPDLYGTVVAAGIVAWFAFQTFENVGMTLGIMPVTGLPLPFVSYGGSSMFAVWIAVGLLQSITVQRPMSA” as the sequence, how does the protein production read?
A: failed

Q: With “MTGQTQGKAVIARERISFWGGFDPQTGRIVDPYSSLRGRDISDCVLILLSSKGSSGTSGMLSLATRAGHAPAAMIQVEMDPVTVMGCLVNNIPLLQASGFDPFEQIQDGDLVRIDGENGTITLTPGQALEHHHHHH” as the sequence, how does the protein production read?
A: failed

Q: With “MTGRIVHFEIPFDDGDRARAFYRDAFGWAIAEIPDMDYSMVTTGPVGESGMPDEPGYINGGMMQRGEVTTPVVTVDVESIESALERIESLGGKTVTGRTPVGNMGFAAYFTDSEGNVVGLWETAR” as the sequence, how does the protein production read?
A: not failed

Q: Which protein production does the source give for “MTGTYTELIEGSERLSGLTDVDEVIKDLSRLLRKLVKTRWIAVYFFDRERRDFAPARSTGLPASFLPVFREMPLAPDKIPLLKSMLRKRQHLMLTDPGSSDLLTPKLRKLLRNLCVLAVPMVVRTQVIGAVFMARTRDNPPFSDAETAIIRDLVSHAALVVSHMQLFDE” here?
A: not failed

Q: With “MTGVSDIQEAVAQIKAAGPSKPRLARDPVNQPMINNWVEAIGDRNPIYVDDAAARAAGHPGIVAPPAMIQVWTMMGLGGVRPKDDPLGPIIKLFDDAGYIGVVATNCEQTYHRYLLPGEQVSISAELGDVVGPKQTALGEGWFINQHIVWQVGDEDVAEMNWRILKFKPAGSPSSVPDDLDPDAMMRPSSSRDTAFFWDGVKAHELRIQRLADGSLRHPPVPAVWQDKSVPINYVVSSGRGTVFSFVVHHAPKVPGRTVPFVIALVELEEGVRMLGELRGADPARVAIGMPVRATYIDFPDWSLYAWEPDE” as the sequence, how does the protein production read?
A: failed
